Test system: TNF ATF 3 (synthetic construct)
Assay: cell_activity
Details: TNF ELISA about 100 pg/mL with CD3/CD28 Dynabeads vs shock; about 3-fold with stimulation cocktail and BFA (FIG. 15)

Chain of TNF ATF 3 (synthetic construct) (chain, as listed by the source): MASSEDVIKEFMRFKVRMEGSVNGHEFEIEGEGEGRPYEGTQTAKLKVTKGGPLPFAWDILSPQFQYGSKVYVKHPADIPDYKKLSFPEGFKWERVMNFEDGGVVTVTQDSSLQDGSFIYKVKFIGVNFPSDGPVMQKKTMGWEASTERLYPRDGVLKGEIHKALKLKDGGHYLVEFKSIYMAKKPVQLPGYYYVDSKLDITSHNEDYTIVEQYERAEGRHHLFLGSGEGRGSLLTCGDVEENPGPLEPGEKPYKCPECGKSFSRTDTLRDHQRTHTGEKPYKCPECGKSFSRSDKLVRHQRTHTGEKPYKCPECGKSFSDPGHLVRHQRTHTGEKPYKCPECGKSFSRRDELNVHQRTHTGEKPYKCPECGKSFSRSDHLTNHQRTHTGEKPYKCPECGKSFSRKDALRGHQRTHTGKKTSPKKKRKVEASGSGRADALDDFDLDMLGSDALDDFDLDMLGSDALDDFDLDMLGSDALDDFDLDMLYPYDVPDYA

For TNF promoter ATF 3 target, which activity is on record?
Its activity is 5 fold.
